The supplement of paper PMC7877785
± gives the uncertainty stated by the source.

Experiment: self-splicing fitness, log relative to wild type (ln ratio); higher = more splicing; Tetrahymena group I intron in knt gene, E. coli kanamycin selection, DiMSum; sequences stand for … in CUCUCU…GGAGGGAAAAGUUAUCAGGCAUGCACCUGGUAGCUAGUCUUUAAACCAAUAGAUUGCAUCGGUUUAAAAGGCAAGACCGUCAAAUUGCGGGAAAGGGGUCAACAGCCGUUCAGUACCAAGUCUCAGGGGAAACUUUGAGAUGGCCUUGCAAAGGGUAUGGUAAUAAGCUGACGGACAUGGUCCUAACCACGCAGCCAAGUCCUAAGUCAACAGAUCUUCUGUUGAUAUGGAUGCAGUUCACAGACUAAAUGUCGGUCGGGGAAGAUGUAUUCUUCUCAUAAGAUAUAGUCGGACCUCUCCUUAAUGGGAGCUAGCGGAUGAAGUGAUGCAACACUGGAGCCGCUGGGAACUAAUUUGUAUGCGAAAGUAUAUUGAUUAGUUUUGGAGUACUCGUGGUCG
Procedure, shortened: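 Six replicate transformations of E. coli BL21(DE3) with a pET-22b(+) library were grown overnight at 37°C or 30°C. The library randomised all eight P1ex-region intron nucleotides, the intron lying in the knt kanamycin-resistance gene, and plates were LB agar with or without 25 μg/mL kanamycin plus 100 μg/mL carbenicillin, 50 μM IPTG and 0.2% rhamnose. Pooled colonies were amplicon-sequenced on an Illumina HiSeq 2500, and fitness is the DiMSum error-weighted combination of wild-type-normalised replicate fold changes, kanamycin versus none.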

Sequence	self-splicing fitness (ln) (30 °C)	self-splicing fitness (ln) (37 °C)
UCCCAGCAAUAUUACGCAUU	-2.93 ± 0.076	-1.58 ± 0.082
UGGUAGCAAUAUUACGUUUU	-3.96 ± 0.24	-2.32 ± 0.16
CAUGAGCAAUAUUACGGACG	-0.912 ± 0.087	-0.391 ± 0.11
ACGCAGCAAUAUUACGGCUC	-0.489 ± 0.055	-0.0273 ± 0.082
CCGUAGCAAUAUUACGCGGU	-3.13 ± 0.27	-2.38 ± 0.3
GCGGAGCAAUAUUACGAGUG	-2.86 ± 0.34	-2.71 ± 0.48
ACACAGCAAUAUUACGAUGG	-1.53 ± 0.064	-0.66 ± 0.082
AAGAAGCAAUAUUACGGGGU	-4.04 ± 0.29	-2.64 ± 0.2
GCCGAGCAAUAUUACGCGAA	-1.84 ± 0.12	-1.34 ± 0.17
GAGCAGCAAUAUUACGGUUA	-0.804 ± 0.1	-0.875 ± 0.1
CCGUAGCAAUAUUACGACAU	-3.773 ± 0.027	-2.94 ± 0.042
GGCGAGCAAUAUUACGUGCA	-0.905 ± 0.085	-0.435 ± 0.098
AAAUAGCAAUAUUACGCGGG	-3.02 ± 0.19	-1.23 ± 0.12
UUUGAGCAAUAUUACGUUGU	-2.68 ± 0.21	-2.46 ± 0.28
UCGUAGCAAUAUUACGGUUC	-3.12 ± 0.3	-2.07 ± 0.27
UGGUAGCAAUAUUACGCGGU		-2.58 ± 0.45
UUCAAGCAAUAUUACGGCAA	0.101 ± 0.1	0.0563 ± 0.11
UAACAGCAAUAUUACGAACA	-0.546 ± 0.072	0.297 ± 0.087
CAAAAGCAAUAUUACGACGA	-0.512 ± 0.09	-0.343 ± 0.094

Sequence	self-splicing fitness (ln) (30 °C)	self-splicing fitness (ln) (37 °C)
AACCAGCAAUAUUACGCGUA	-0.386 ± 0.063	-0.313 ± 0.073
UCAUAGCAAUAUUACGAUUG	-2.31 ± 0.13	-1.38 ± 0.13
ACAAAGCAAUAUUACGGUGC	-2.89 ± 0.12	-2.32 ± 0.12
AUUCAGCAAUAUUACGUAAG	-0.27 ± 0.069	-0.22 ± 0.093
GUAGAGCAAUAUUACGAACU	-1.19 ± 0.23	-0.867 ± 0.24
CCAUAGCAAUAUUACGUGUC	-3.89 ± 0.2	-2.45 ± 0.23
UGGUAGCAAUAUUACGGCUA	-1.37 ± 0.2	-0.75 ± 0.19
UCAGAGCAAUAUUACGACGU	-1.87 ± 0.2	0.0812 ± 0.17
ACCCAGCAAUAUUACGAUGG	-2.94 ± 0.095	-1.26 ± 0.085
AAUAAGCAAUAUUACGAGAA	-3.24 ± 0.38	-1.55 ± 0.27
CAAAAGCAAUAUUACGCCGG	-0.401 ± 0.098	-0.104 ± 0.13
GAAGAGCAAUAUUACGGGGA	-2.93 ± 0.43	-0.71 ± 0.31
AGAAAGCAAUAUUACGCCAA	-3.75 ± 0.17	-2.91 ± 0.069
UCAGAGCAAUAUUACGACCA	-2.73 ± 0.38	-2.63 ± 0.47
ACGCAGCAAUAUUACGAACU	-0.619 ± 0.062	-0.501 ± 0.081
GAGUAGCAAUAUUACGCAUU	-3.07 ± 0.13	-2.07 ± 0.12
AGAAAGCAAUAUUACGAUGG	-2.28 ± 0.15	-3.17 ± 0.35
AACCAGCAAUAUUACGGUCA	-0.301 ± 0.045	0.0924 ± 0.062
